PMC4075756 (Nature, 2011)

Biological target: the molecule itself
Assay: SEC + other: sucrose gradient centrifugation

B1: rat dynamin 1 lacking the proline-rich domain (Dyn1 ΔPRD) (domain or fragment)
chain: MGNRGMEDLIPLVNRLQDAFSAIGQNADLDLPQIAVVGGQSAGKSSVLENFVGRDFLPRGSGIVTRRPLVLQLVNSTTEYAEFLHCKGKKFTDFEEVRLEIEAETDRVTGTNKGISPVPINLRVYSPHVLNLTLVDLPGMTKVPVGDQPPDIEFQIRDMLMQFVTKENCLILAVSPANSDLANSDALKIAKEVDPQGQRTIGVITKLDLMDEGTDARDVLENKLLPLRRGYIGVVNRSQKDIDGKKDITAALAAERKFFLSHPSYRHLADRMGTPYLQKVLNQQLTNHIRDTLPGLRNKLQSQLLSIEKEVDEYKNFRPDDPARKTKALLQMVQQFAVDFEKRIEGSGDQIDTYELSGGARINRIFHERFPFELVKMEFDEKELRREISYAIKNIHGIRTGLFTPDLAFEATVKKQVQKLKEPSIKCVDMVVSELTSTIRKCSEKLQQYPRLREEMERIVTTHIREREGRTKEQVMLLIDIELAYMNTNHEDFIGFANAQQRSNQMNKKKTSGNQDEILVIRKGWLTINNIGIMKGGSKEYWFVLTAENLSWYKDDEEKEKKYMLSVDNLKLRDVEKGFMSSKHIFALFNTEQRNVYKDYRQLELACETQEEVDSWKASFLRAGVYPERVGDKEKASETEENGSDSFMHSMDPQLERQVETIRNLVDSYMAIVNKTVRDLMPKTIMHLMINNTKEFIFSELLANLYSCGDQNTLMEESAEQAQRRDEMLRMYHALKEALSIIGDINTTTVST
stoichiometry N: 2
